# According to the supplement of paper PMC10567573:
# B1: PLAGL1 (parent)
# chain: LELGSTEVLLDHLKAHAEEKPPSG
# B2: TFE3 (parent)
# chain: FPSDHLGDLGDPFHLGLEDILMEE
# Variants of: B1
# Assay: protein stability index of a GFP-peptide fusion (GPS, HEK-293T) (PSI 1-6); higher = more stable
# Conditions: c terminus: a fixed tail appended
# 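Further: lentivirally expressed fusions sorted by FACS into six bins by GFP to DsRed ratio, PSI derived from sequencing read proportions per bin multiplied by bin number.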
row,Variant,protein stability index
1,L3E,5.8
2,L3R,5.54
3,L3V,4.9
4,L3G,5.74
5,L3S,5.72
6,L3H,5.4
7,L3I,4.74
8,L3W,4.49
9,L3K,5.19
10,L3N,5.67
11,L3P,5.88
12,L3F,4.33
13,L3C,5.21
14,L3Y,5.45
15,L3A,5.17
16,L3M,4.09
17,L3T,5.18
18,L3D,5.79
19,L3Q,5.55
20,T6Q,5.22
21,T6C,4.38
22,T6W,2.89
23,T6A,3.58
24,T6V,4.24
25,T6G,4.75

row,Variant,protein stability index
1,T6Y,3.76
2,T6I,3.4
3,T6K,5.38
4,T6S,4.71
5,T6E,5.49
6,T6M,3.74
7,T6R,4.57
8,T6F,3.62
9,T6N,4.76
10,T6L,2.84
11,T6P,4.25
12,T6H,5.42
13,D11T,3.07
14,D11K,3.65
15,D11S,3.54
16,D11P,5.43
17,D11W,3.03
18,D11E,3.56
19,D11M,2.2
20,D11I,1.25
21,D11F,1.77
22,D11V,1.86
23,D11R,3.46
24,D11Y,2.7
25,D11N,4.29

row,Variant,protein stability index
1,D11Q,2.17
2,D11G,3.56
3,D11C,2.36
4,D11H,3.79
5,D11A,4
6,D11L,1.79
7,V8K,4.51
8,V8L,3.21
9,V8M,3.54
10,V8T,5
11,V8S,4.87
12,V8E,5.29
13,V8A,4.64
14,V8H,4.55
15,V8Q,4.75
16,V8D,5.01
17,V8I,3.91
18,V8P,4.84
19,V8W,3.79
20,V8C,4.41
21,V8F,3.85
22,V8R,4.96
23,V8N,4.85
24,V8Y,4.62
25,E7H,4.39

row,Variant,protein stability index
1,E7A,4.78
2,E7T,4.24
3,E7F,3.86
4,E7V,3.82
5,E7S,4.81
6,E7D,5.27
7,E7C,4.27
8,E7I,3.69
9,E7W,3.04
10,E7Q,4.89
11,E7L,3.41
12,E7N,4.67
13,E7R,4.81
14,E7K,3.85
15,E7P,5.07
16,E7M,3.54
17,E7Y,3.77
18,E7G,4.89
19,L13H,5.61
20,L13I,4.97
21,L13G,5.46
22,L13K,5.68
23,L13R,5.6
24,L13S,5.6
25,L13W,3.78

row,Variant,protein stability index
1,L13A,5.38
2,L13D,5.87
3,L13Q,5.76
4,L13V,4.36
5,L13Y,3.9
6,L13P,5.35
7,L13C,4.84
8,L13N,5.64
9,L13M,5.09
10,L13T,5.46
11,L13F,4.22
12,L13E,5.3
13,K14S,5.04
14,K14M,3.6
15,K14P,5.32
16,K14F,3.5
17,K14G,5.39
18,K14C,4.69
19,K14L,4.61
20,K14N,5.04
21,K14T,5.1
22,K14Q,4.59
23,K14H,5.15
24,K14I,4.55
25,K14E,5.5

row,Variant,protein stability index
1,K14A,4.93
2,K14W,4.1
3,K14Y,4.14
4,K14R,3.5
5,K14D,5.56
6,K14V,4.63
7,E2K,4.23
8,E2G,4.81
9,E2L,2.27
10,E2Q,4.19
11,E2Y,2.34
12,E2N,4.69
13,E2V,2.49
14,E2A,3.53
15,E2D,4.03
16,E2M,2.81
17,E2S,3.37
18,E2H,4.03
19,E2I,3.18
20,E2W,2
21,E2R,3.4
22,E2P,4.67
23,E2C,3.84
24,E2T,4.16
25,E2F,2.15

row,Variant,protein stability index
1,L9T,5.58
2,L9E,5.92
3,L9F,4.79
4,L9H,5.15
5,L9V,4.97
6,L9N,5.71
7,L9A,5.08
8,L9S,5.72
9,L9P,5.57
10,L9W,4.11
11,L9G,5.6
12,L9C,5.04
13,L9M,4.77
14,L9Q,5.84
15,L9R,4.63
16,L9K,4.99
17,L9Y,4.83
18,L9I,4.45
19,L9D,4.91
20,S5H,4.84
21,S5C,4.51
22,S5Q,2.92
23,S5I,4.15
24,S5E,3.8
25,S5W,2.97

row,Variant,protein stability index
1,S5T,4.44
2,S5F,3.09
3,S5K,3.85
4,S5V,3.79
5,S5N,5.08
6,S5G,4.56
7,S5Y,3.33
8,S5P,4.79
9,S5A,3.22
10,S5L,2.53
11,S5D,4.84
12,S5M,2.3
13,S5R,3.5
14,G4F,2.59
15,G4D,5.28
16,G4A,2.89
17,G4T,3.95
18,G4V,3.28
19,G4C,3.54
20,G4M,2.25
21,G4Q,3.68
22,G4N,4.54
23,G4P,4.77
24,G4I,2.58
25,G4L,2.77

row,Variant,protein stability index
1,G4S,4.14
2,G4R,3.94
3,G4K,4.3
4,G4Y,2.19
5,G4W,2.2
6,G4H,3.83
7,G4E,3.85
8,A15C,4.04
9,A15K,3.87
10,A15I,4.24
11,A15G,4.29
12,A15L,4.83
13,A15E,5.05
14,A15F,4.18
15,A15H,4.37
16,A15D,4.8
17,H12S,4.9
18,H12W,3
19,H12K,3.99
20,H12C,4.32
21,H12A,3.98
22,H12M,3.06
23,H12Q,4.82
24,H12D,5.18
25,H12T,4.62

row,Variant,protein stability index
1,H12N,5.15
2,H12G,5.16
3,H12V,3.26
4,H12I,3.02
5,H12L,2.21
6,H12Y,2.44
7,H12F,2.71
8,H12P,5.48
9,H12R,4.37
10,H12E,5.54
11,L1D,5.24
12,L1A,5.43
13,L1C,4.61
14,L1N,5.35
15,L1F,4.48
16,L1P,5.23
17,L1S,4.98
18,L1W,4.28
19,L1M,4.59
20,L1T,4.91
21,L1E,5.02
22,L1R,5.29
23,L1H,5.36
24,L1I,3.55
25,L1G,4.44

row,Variant,protein stability index
1,L1Q,4.99
2,L1V,4.91
3,L1Y,4.38
4,L1K,5.53
5,L10N,5.74
6,L10G,5.66
7,L10P,5.36
8,L10T,5.87
9,L10M,5.42
10,L10H,5.35
11,L10E,4.86
12,L10S,5.42
13,L10V,5.1
14,L10Q,5.41
15,L10W,4.81
16,L10Y,5.26
17,L10D,5.35
18,L10A,5.72
19,L10F,5.3
20,L10K,5.83
21,L10C,5.35
22,L10R,5.62
23,L10I,4.07

# Variants of: B2
# Assay: as above
# Conditions: c terminus: a fixed tail appended
row,Variant,protein stability index
1,F13W,1.76
2,F13Q,4.61
3,F13N,4.97
4,F13V,4.89
5,F13G,4.97
6,G16K,3.3
7,I20T,3.97
8,I20W,3.5
9,I20V,3.48
10,I20P,3.77
11,S3M,2.59
12,S3I,3.02
13,S3A,2.85
14,S3C,2.46
15,D4E,3.77
16,G7V,3.77
17,G7T,3.3
18,D11L,2.89
19,D11T,2.92
20,D11S,2.13
21,D8Y,2.14

row,Variant,protein stability index
1,E24I,1.97
2,E24F,1.92
3,E24D,3.54
4,E24M,2.62
5,E24W,1.8
6,F1C,5.03
7,F1T,4.74
8,F1D,4.84
9,L21W,3.14
10,L21R,3.78
11,L21G,3.88
12,H5Q,3.85
13,L9W,2.19
14,L9R,3.66
15,M22D,4.26
16,M22I,3.35
17,L17I,3.22
18,L17A,3.92
19,L6Q,3.6
20,L6V,3.81
21,L6F,3.16

row,Variant,protein stability index
1,L15H,3.93
2,L15I,3.05
3,L15C,3.31
4,G10P,3.47
5,G10I,3.04
6,G10S,3.15
7,G10E,3.67
8,H14R,3.52
9,H14V,3.04
10,H14E,4.36
11,D19T,2.58
12,D19Y,1.91
13,D19A,2.1
14,D19G,3.46
15,D19I,2.92
16,E18S,3.51
17,E18Q,2.89
18,P2R,3.52
19,P12C,3.62
